Data set [1] concerns the molecule itself. The experiment in a line: SAXS; scattering curve of 5KA DprA in solution superimposed on that of WT DprA (the latter taken from ref. 18).
Data set [2] deals with T1, S. pneumoniae RecA lacking the first 28 residues (Δ28), purified (S. pneumoniae, UniProt P0A451 29-388).
T1 construct: RecA, Streptococcus pneumoniae, locus Sp1940, the 28 first residues removed; also called Δ28RecA; source: E. coli, purified (Ni-NTA column, gel filtration)
Briefly: pull-down; pull-down on magnetic beads using purified proteins; which partner was on the beads is told only in the supplementary methods. Conditions: both partners purified.

B1: S. pneumoniae DprA K119A/K144A/K175A/K202A/K225A (5KA), purified (natural protein)
chain: MKITNYEIYKLKKSGLTNQQILKVLEYGENVDQELLLGDIADISGCRNPAVFMERYFQIDDAHLSKEFQKFPSFSILDDCYPWDLSEIYDAPVLLFYKGNLDLLKFPKVAVVGSRACSAQGAKSVEKVIQGLENELVIVSGLAAGIDTAAHMAALQNGGKTIAVIGTGLDVFYPAANKRLQDYIGNDHLVLSEYGPGEQPLAFHFPARNRIIAGLCRGVIVAEAAMRSGSLITCERAMEEGRDVFAIPGSILDGLSDGCHHLIQEGAKLVTSGQDVLAEFEF
notes: DprA, Streptococcus pneumoniae, locus Sp1266, five lysines K119/K144/K175/K202/K225 mutated to alanines; also called 5KADprA; 5KA mutant; source: E. coli, purified (Ni-NTA column, gel filtration)
One may read the stoichiometry N as the number of molecules, sites or subunits per partner or assembly. With B1, the “stoichiometry N” value in data set [1] was 2. The binding result in data set [2] is on record as “binds”.
